Experimental data taken from publication PMC3763545 (Nucleic Acids Research, 2013).
Values belong to the molecule of their own block, whether it stands above or below them.

T1: human DBP5 f.l. (residues 1-479) (human, UniProt Q9UMR2 1-479)
T1 sequence (looked up): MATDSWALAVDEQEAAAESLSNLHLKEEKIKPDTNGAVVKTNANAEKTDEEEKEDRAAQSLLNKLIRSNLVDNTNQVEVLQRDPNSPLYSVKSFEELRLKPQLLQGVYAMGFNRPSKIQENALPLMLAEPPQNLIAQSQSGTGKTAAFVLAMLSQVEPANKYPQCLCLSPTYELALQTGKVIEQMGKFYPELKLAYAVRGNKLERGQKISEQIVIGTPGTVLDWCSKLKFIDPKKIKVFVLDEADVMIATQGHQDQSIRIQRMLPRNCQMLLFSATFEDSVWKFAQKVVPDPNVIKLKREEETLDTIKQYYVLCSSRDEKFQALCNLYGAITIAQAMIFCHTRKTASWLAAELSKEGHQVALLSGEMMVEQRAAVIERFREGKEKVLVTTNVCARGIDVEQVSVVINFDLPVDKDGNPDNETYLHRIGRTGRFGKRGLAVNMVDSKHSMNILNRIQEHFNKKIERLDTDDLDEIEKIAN

B1: human full-length SLIP1 (natural protein, UniProt A9UHW6 1-222, looked up)
chain: MGEPSREEYKIQSFDAETQQLLKTALKDPGAVDLEKVANVIVDHSLQDCVFSKEAGRMCYAIIQAESKQAGQSVFRRGLLNRLQQEYQAREQLRARSLQGWVCYVTFICNIFDYLRVNNMPMMALVNPVYDCLFRLAQPDSLSKEEEVDCLVLQLHRVGEQLEKMNGQRMDELFVLIRDGFLLPTGLSSLAQLLLLEIIEFRAAGWKTTPAAHKYYYSEVSD
B2: human DBP5 residues 1-51 (domain or fragment, UniProt Q9UMR2 1-51, looked up)
chain: MATDSWALAVDEQEAAAESLSNLHLKEEKIKPDTNGAVVKTNANAEKTDEE

Assays:
Experiment in all cases: ITC
[1] = target: zebrafish (Danio rerio) full-length SLIP1 (zebrafish (Danio rerio))
[2] = target: T1, human DBP5 f.l. (residues 1-479)
[3] = target: B1

- Kd [1]: 2000 nM
Molecule: zebrafish DBP5 residues 1-32 (domain or fragment)

Molecule: B1
- Kd [2]: 100 nM

Molecule: B2
- Kd [3]: ~1100 nM
